Reference: the supplement of paper PMC9112550, “Optimization of the antimicrobial peptide Bac7 by deep mutational scanning” (BMC Biology, 2022)

System: Escherichia coli TOP10
Experiment: shrunken log2 fold change of peptide-encoding DNA abundance (4.5 h post-induction vs induction); higher = less antimicrobial activity (less host growth inhibition)
Details: time post-induction: 4.5 h; library: site-saturation at positions 5, 18, 19, 20
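Note: peptides expressed intracellularly from a pBAD plasmid library in pooled LB shake-flask culture, induced with 0.3% L-arabinose, DNA abundance read by NGS, three biological replicates, DESeq2 with apeglm shrinkage.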

Sequence | shrunken log2 fold change
RRIRFRPPRLPRPRPRPILIPRP | -0.194
RRIRFRPPRLPRPRPRPILKPRP | -0.43
RRIRFRPPRLPRPRPRPILLPRP | -0.554
RRIRFRPPRLPRPRPRPILMPRP | -0.0682
RRIRFRPPRLPRPRPRPILPPRP | -0.188
RRIRFRPPRLPRPRPRPIMDPRP | -0.212
RRIRFRPPRLPRPRPRPIMKPRP | -0.679
RRIRFRPPRLPRPRPRPIMPPRP | -0.127
RRIRFRPPRLPRPRPRPINIPRP | -0.113
RRIRFRPPRLPRPRPRPINQPRP | -0.694
RRIRFRPPRLPRPRPRPINSPRP | -0.428
RRIRFRPPRLPRPRPRPIPQPRP | 0.132
RRIRFRPPRLPRPRPRPISLPRP | -0.452
RRIRFRPPRLPRPRPRPISPPRP | -0.211
RRIRFRPPRLPRPRPRPITNPRP | -0.352
RRIRFRPPRLPRPRPRPIVAPRP | -0.112
RRIRFRPPRLPRPRPRPIVLPRP | -0.196
RRIRFRPPRLPRPRPRPIVPPRP | 0.0537
RRIRFRPPRLPRPRPRPIYNPRP | -0.624
RRIRFRPPRLPRPRPRPKCRPRP | -0.0272
RRIRFRPPRLPRPRPRPKCSPRP | -0.0194
RRIRFRPPRLPRPRPRPKCVPRP | -0.184
RRIRFRPPRLPRPRPRPKDGPRP | -0.184
RRIRFRPPRLPRPRPRPKFMPRP | -0.542
RRIRFRPPRLPRPRPRPKFTPRP | 0.012

Sequence | shrunken log2 fold change
RRIRFRPPRLPRPRPRPKGDPRP | 0.054
RRIRFRPPRLPRPRPRPKGNPRP | -0.047
RRIRFRPPRLPRPRPRPKHNPRP | -0.483
RRIRFRPPRLPRPRPRPKICPRP | -0.0416
RRIRFRPPRLPRPRPRPKIGPRP | -0.0769
RRIRFRPPRLPRPRPRPKIIPRP | -0.592
RRIRFRPPRLPRPRPRPKKPPRP | -0.0169
RRIRFRPPRLPRPRPRPKLAPRP | 0.559
RRIRFRPPRLPRPRPRPKMGPRP | -0.122
RRIRFRPPRLPRPRPRPKNCPRP | 1.35
RRIRFRPPRLPRPRPRPKNDPRP | -0.407
RRIRFRPPRLPRPRPRPKPSPRP | 0.462
RRIRFRPPRLPRPRPRPKRDPRP | 0.362
RRIRFRPPRLPRPRPRPKSCPRP | 0.0245
RRIRFRPPRLPRPRPRPKSYPRP | -0.201
RRIRFRPPRLPRPRPRPKWNPRP | -0.217
RRIRFRPPRLPRPRPRPKYAPRP | -0.145
RRIRFRPPRLPRPRPRPKYGPRP | -0.234
RRIRFRPPRLPRPRPRPLCFPRP | -0.211
RRIRFRPPRLPRPRPRPLCLPRP | -0.431
RRIRFRPPRLPRPRPRPLECPRP | -0.0348
RRIRFRPPRLPRPRPRPLFKPRP | -0.279
RRIRFRPPRLPRPRPRPLFPPRP | -0.23
RRIRFRPPRLPRPRPRPLGAPRP | 0.312
RRIRFRPPRLPRPRPRPLGMPRP | -0.0132

Sequence | shrunken log2 fold change
RRIRFRPPRLPRPRPRPLGRPRP | 0.109
RRIRFRPPRLPRPRPRPLHGPRP | -0.216
RRIRFRPPRLPRPRPRPLHHPRP | -0.434
RRIRFRPPRLPRPRPRPLIHPRP | -0.891
RRIRFRPPRLPRPRPRPLKDPRP | -0.276
RRIRFRPPRLPRPRPRPLKFPRP | -0.544
RRIRFRPPRLPRPRPRPLKRPRP | -0.227
RRIRFRPPRLPRPRPRPLKYPRP | -0.262
RRIRFRPPRLPRPRPRPLLQPRP | 0.0394
RRIRFRPPRLPRPRPRPLMCPRP | -0.328
RRIRFRPPRLPRPRPRPLMHPRP | -0.246
RRIRFRPPRLPRPRPRPLMKPRP | -1.06
RRIRFRPPRLPRPRPRPLMVPRP | -0.38
RRIRFRPPRLPRPRPRPLNFPRP | -0.452
RRIRFRPPRLPRPRPRPLPYPRP | -0.101
RRIRFRPPRLPRPRPRPLQLPRP | -0.51
RRIRFRPPRLPRPRPRPLQVPRP | -0.135
RRIRFRPPRLPRPRPRPLSCPRP | -0.73
RRIRFRPPRLPRPRPRPLTIPRP | -0.219
RRIRFRPPRLPRPRPRPLTRPRP | -0.0631
RRIRFRPPRLPRPRPRPLVAPRP | -0.00793
RRIRFRPPRLPRPRPRPLVFPRP | -0.204
RRIRFRPPRLPRPRPRPLVHPRP | -0.298
RRIRFRPPRLPRPRPRPLWEPRP | -0.12
RRIRFRPPRLPRPRPRPLWIPRP | -0.624
